# B1: PEX5 peptide 238-253 (Peroxisomal targeting signal 1 receptor), 16-mer library wild type / PEX14 Pex14 (PEX14 PEX14, residues 16-84) (parent)
# chain 1: AQAEQWAAEFIQQQGT
# chain 2: TPGSENVLPREPLIATAVKFLQNSRVRQSPLATRRAFLKKKGLTDEEIDMAFQQSGTAADEPSSLGPAT
# Variants of: B1
# Assay: proteomic peptide phage display deep mutational scan (ProP-PD DMS): M13 P8 16-mer library selected against immobilised GST-tagged bait for four days (rounds), NGS of the eluted pools per day and pseudo-replica
# Settings: with PEX14 Pex14 (PEX14 PEX14, residues 16-84); bait immobilised on MaxiSorp plates (10 µg), library pre-cleared on GST, 2 h binding at 4 °C, five washes; one round per day, days 1-4; value from days 2 and 3; keep out of graded; scale: average fractional NGS count over selection days 2 and 3
row,Variant,screen value
1,chain 1 AQAEQWAAEFFQQQGT [chain 1 I11F],0.000739
2,chain 1 AQAEQWAAEFHQQQGT [chain 1 I11H],0.00108
3,chain 1 AQAEQWAAEFPQQQGT [chain 1 I11P],0.00284
4,chain 1 AQAEQWAAEFGQQQGT [chain 1 I11G],0.000289
5,chain 1 AQAEQWAAEFTQQQGT [chain 1 I11T],0.000576
6,chain 1 AQAEQWAAEFDQQQGT [chain 1 I11D],0.00263
7,chain 1 AQAEQWAAEFKQQQGT [chain 1 I11K],0.000266
8,chain 1 AQAEQWAAEFYQQQGT [chain 1 I11Y],0.000717
9,chain 1 AQAEQWAAEFWQQQGT [chain 1 I11W],0
10,chain 1 AQAEQWAAEFQQQQGT [chain 1 I11Q],0.00134
11,chain 1 AQAEQWAAEFVQQQGT [chain 1 I11V],0
12,chain 1 AQAEQWAAEFSQQQGT [chain 1 I11S],0.000456
13,chain 1 AQAEQWAAEFEQQQGT [chain 1 I11E],0.00192
14,chain 1 AQAEQWAAQFIQQQGT [chain 1 E9Q],0.000716
15,chain 1 AQAEQWAAAFIQQQGT [chain 1 E9A],0.00516
16,chain 1 AQAEQWAAGFIQQQGT [chain 1 E9G],0.000159
17,chain 1 AQAEQWAASFIQQQGT [chain 1 E9S],0.000566
18,chain 1 AQAEQWAAHFIQQQGT [chain 1 E9H],0.0023
19,chain 1 AQAEQWAATFIQQQGT [chain 1 E9T],0.00204
20,chain 1 AQAEQWAAIFIQQQGT [chain 1 E9I],0
21,chain 1 AQAEQWAAKFIQQQGT [chain 1 E9K],0.0012
22,chain 1 AQAEQWAADFIQQQGT [chain 1 E9D],0.00183
23,chain 1 AQAEQWAAMFIQQQGT [chain 1 E9M],0.000215
24,chain 1 AQAEQWAVEFIQQQGT [chain 1 A8V],0.00138

row,Variant,screen value
1,chain 1 AQAEQWADEFIQQQGT [chain 1 A8D],0
2,chain 1 AQAEQWAREFIQQQGT [chain 1 A8R],0.000559
3,chain 1 AQAEQWAGEFIQQQGT [chain 1 A8G],0.00272
4,chain 1 AQAEQWAPEFIQQQGT [chain 1 A8P],0
5,chain 1 AQAEQWAQEFIQQQGT [chain 1 A8Q],0.00013
6,chain 1 AQAEQWASEFIQQQGT [chain 1 A8S],0.000444
7,chain 1 AQAEQWAMEFIQQQGT [chain 1 A8M],0.0014
8,chain 1 AQAEQWAFEFIQQQGT [chain 1 A8F],0.00013
9,chain 1 AQAEQWALEFIQQQGT [chain 1 A8L],0.00137
10,chain 1 AQAEQWAWEFIQQQGT [chain 1 A8W],0.00148
11,chain 1 AQAEQWAAEFIQQQKT [chain 1 G15K],0
12,chain 1 AQAEQWAAEFIQQQIT [chain 1 G15I],0
13,chain 1 AQAEQWAAEFIQQQWT [chain 1 G15W],0.000703
14,chain 1 AQAEQWAAEFIQQQRT [chain 1 G15R],0.000288
15,chain 1 AQAEQWAAEFIQQQST [chain 1 G15S],0.000212
16,chain 1 AQAEQWAAEFIQQQDT [chain 1 G15D],0.000327
17,chain 1 AQAEQWAAEFIQQQVT [chain 1 G15V],0.000135
18,chain 1 AQAEQWAAEFIQQQYT [chain 1 G15Y],0
19,chain 1 AQAIQWAAEFIQQQGT [chain 1 E4I],0.000318
20,chain 1 AQAVQWAAEFIQQQGT [chain 1 E4V],0
21,chain 1 AQAYQWAAEFIQQQGT [chain 1 E4Y],0.000168
22,chain 1 AQAMQWAAEFIQQQGT [chain 1 E4M],0.000893
23,chain 1 AQAAQWAAEFIQQQGT [chain 1 E4A],0.000155
24,chain 1 AQAWQWAAEFIQQQGT [chain 1 E4W],0.00183

row,Variant,screen value
1,chain 1 AQAGQWAAEFIQQQGT [chain 1 E4G],0.00183
2,chain 1 AQAKQWAAEFIQQQGT [chain 1 E4K],0.00104
3,chain 1 AQAEQWAAEFIQRQGT [chain 1 Q13R],0.00284
4,chain 1 AQAEQWAAEFIQYQGT [chain 1 Q13Y],0.000125
5,chain 1 AQAEQWAAEFIQFQGT [chain 1 Q13F],0.000134
6,chain 1 AQAEQWAAEFIQAQGT [chain 1 Q13A],0.00172
7,chain 1 AQAEQWAAEFIQGQGT [chain 1 Q13G],0.000627
8,chain 1 AQAEQWAAEFIQSQGT [chain 1 Q13S],0
9,chain 1 AQAEQWAAEFIQTQGT [chain 1 Q13T],0.000335
10,chain 1 AQAEQWAAEFIQDQGT [chain 1 Q13D],0.000183
11,chain 1 AQAEQWAAEFIQMQGT [chain 1 Q13M],0.000454
12,chain 1 AQAEQWAAEFIQHQGT [chain 1 Q13H],0
13,chain 1 AQAEQWAAEFIQLQGT [chain 1 Q13L],0.00111
14,chain 1 AQAEQWAAEFIQKQGT [chain 1 Q13K],0
15,chain 1 AQAEQWAAEHIQQQGT [chain 1 F10H],0.014
16,chain 1 AQAEQWAAEWIQQQGT [chain 1 F10W],0.00148
17,chain 1 AQAEQWAAEYIQQQGT [chain 1 F10Y],0.000488
18,chain 1 AQAEQWAAESIQQQGT [chain 1 F10S],0.000175
19,chain 1 AQAEQWAAEIIQQQGT [chain 1 F10I],0.000137
20,chain 1 AQAEQWAAEQIQQQGT [chain 1 F10Q],0.000673
21,chain 1 AQAEQWRAEFIQQQGT [chain 1 A7R],0.00151
22,chain 1 AQAEQWDAEFIQQQGT [chain 1 A7D],0
23,chain 1 AQAEQWNAEFIQQQGT [chain 1 A7N],0
24,chain 1 AQAEQWVAEFIQQQGT [chain 1 A7V],0

row,Variant,screen value
1,chain 1 AQAEQWFAEFIQQQGT [chain 1 A7F],0.000286
2,chain 1 AQAEQWHAEFIQQQGT [chain 1 A7H],0.00597
3,chain 1 AQAEQWGAEFIQQQGT [chain 1 A7G],0.00166
4,chain 1 AQAEQWSAEFIQQQGT [chain 1 A7S],0.00111
5,chain 1 AQAEQWYAEFIQQQGT [chain 1 A7Y],0.00359
6,chain 1 AQAEQWIAEFIQQQGT [chain 1 A7I],0.000152
7,chain 1 AQAEQWLAEFIQQQGT [chain 1 A7L],0.00129
8,chain 1 AQAEQWAAEFIVQQGT [chain 1 Q12V],0.000188
9,chain 1 AQAEQWAAEFILQQGT [chain 1 Q12L],0.000406
10,chain 1 AQAEQWAAEFIKQQGT [chain 1 Q12K],0.000341
11,chain 1 AQAEQWAAEFIWQQGT [chain 1 Q12W],0.000355
12,chain 1 AQAEQWAAEFITQQGT [chain 1 Q12T],0.000592
13,chain 1 AQAEQWAAEFIMQQGT [chain 1 Q12M],0.00226
14,chain 1 AQAEQWAAEFIFQQGT [chain 1 Q12F],0.000147
15,chain 1 AQAEQWAAEFISQQGT [chain 1 Q12S],0.00055
16,chain 1 AQAEQWAAEFIGQQGT [chain 1 Q12G],0.000368
17,chain 1 AQAEQWAAEFIRQQGT [chain 1 Q12R],0
18,chain 1 AQAEQWAAEFIEQQGT [chain 1 Q12E],0
19,chain 1 AQAEQWAAEFIPQQGT [chain 1 Q12P],0.000699
20,chain 1 AQAEQWAAEFIAQQGT [chain 1 Q12A],0
21,chain 1 AEAEQWAAEFIQQQGT [chain 1 Q2E],0
22,chain 1 APAEQWAAEFIQQQGT [chain 1 Q2P],0.00113
